Where no end group is shown, it is not given here.
Legend:
PTH1R [1] = biological target: T1, PTH1R (Homo sapiens, UniProt Q03431); settings: cited from earlier work
T1 sequence (Q03431 27-593): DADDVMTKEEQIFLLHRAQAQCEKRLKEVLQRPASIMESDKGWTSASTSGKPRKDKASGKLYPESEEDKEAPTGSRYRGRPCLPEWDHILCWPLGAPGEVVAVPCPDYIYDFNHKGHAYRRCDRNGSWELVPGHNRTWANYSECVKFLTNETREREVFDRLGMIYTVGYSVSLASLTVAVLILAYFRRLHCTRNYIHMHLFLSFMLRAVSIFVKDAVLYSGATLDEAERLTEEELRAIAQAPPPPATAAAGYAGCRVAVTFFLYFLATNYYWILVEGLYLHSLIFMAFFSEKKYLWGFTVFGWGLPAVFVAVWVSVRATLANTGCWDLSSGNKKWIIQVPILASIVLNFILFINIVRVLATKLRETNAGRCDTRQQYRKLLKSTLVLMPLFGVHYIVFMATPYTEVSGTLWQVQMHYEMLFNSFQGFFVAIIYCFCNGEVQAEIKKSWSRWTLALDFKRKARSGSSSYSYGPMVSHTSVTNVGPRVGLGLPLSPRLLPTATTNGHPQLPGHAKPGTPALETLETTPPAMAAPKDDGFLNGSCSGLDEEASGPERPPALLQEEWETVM

PTH1R [2] = biological target: T1, PTH1R; settings: cited from earlier work; remark: listed apart in the source
[3] = biological target: T2, human PTH/PTHrP receptor (PTH1R) (human, UniProt Q03431 27-593); experiment: cell-based or functional assay
T2 sequence (looked up): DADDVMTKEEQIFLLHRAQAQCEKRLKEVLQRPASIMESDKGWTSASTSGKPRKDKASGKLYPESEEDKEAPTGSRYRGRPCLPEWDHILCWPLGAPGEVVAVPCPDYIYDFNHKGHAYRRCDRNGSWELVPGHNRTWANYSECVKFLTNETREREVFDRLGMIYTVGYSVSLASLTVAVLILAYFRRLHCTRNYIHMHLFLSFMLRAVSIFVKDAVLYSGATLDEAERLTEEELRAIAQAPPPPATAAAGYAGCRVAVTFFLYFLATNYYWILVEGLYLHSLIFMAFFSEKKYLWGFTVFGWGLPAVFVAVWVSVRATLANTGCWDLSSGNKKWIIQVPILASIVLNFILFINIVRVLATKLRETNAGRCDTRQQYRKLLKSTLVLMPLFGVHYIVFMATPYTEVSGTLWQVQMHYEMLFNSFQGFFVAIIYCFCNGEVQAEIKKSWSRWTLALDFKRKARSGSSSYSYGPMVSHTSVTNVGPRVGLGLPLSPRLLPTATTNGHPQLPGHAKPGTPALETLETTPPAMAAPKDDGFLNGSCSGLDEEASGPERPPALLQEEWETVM

[4] = biological target: T2, human PTH/PTHrP receptor (PTH1R); experiment: cell-based or functional assay; remark: listed apart in the source
[5] = biological target: T2, human PTH/PTHrP receptor (PTH1R); experiment: radioreceptor competition on HKrk-B7 cells
Method: (§1) Specific binding was determined after subtracting radioactivity bound in the presence of maximal concentrations of unlabeled competing peptide (10⁻⁶ M). Agonist-dependent stimulation of cAMP accumulation by HKrk-B7 and SaOS-2 cells (48-well plates; stimulation at room temperature for 45 minutes) and the subsequent measurement of cAMP by radioimmunoassay was performed as previously described (Gardella, T. J., et al., J. Biol. Chem. 271:19888-19893 (1996); Bergwitz, C., et al., Endocrinology 139:723-732 (1998)). Data were analyzed and graphically illustrated using the graph-pad prism software package.

[6] = biological target: T2, human PTH/PTHrP receptor (PTH1R); experiment: radioreceptor competition on HKrk-B7 cells; either tracer
Method: as §1

[7] = biological target: T2, human PTH/PTHrP receptor (PTH1R); experiment: radioreceptor competition on HKrk-B7 cells; tracer 125I-[Tyr36]PTHrP(1-36)amide
Method: (§2) Na¹²⁵I (specific activity: 2,000 Ci/mmol) was purchased from DuPont/NEN, Boston, Mass. Fetal bovine serum, 3-isobutyl-1-methyl-xanthine (IBMX), and BSA were from Sigma, St. Louis, Mo., and trifluoroacetic acid (TFA) was from Pierce, Rockford, Ill. […] After 4 h at 16° C., buffer was completely removed, the cells were rinsed with cold BB and lysed with 1 M NaOH. The entire lysate was counted for γ-irradiation. Specific binding was determined after subtracting radioactivity bound in the presence of maximal concentrations of unlabeled competing peptide (10⁻⁶ M). Agonist-dependent stimulation of cAMP accumulation by HKrk-B7 and SaOS-2 cells (48-well plates; stimulation at room temperature for 45 minutes) and the subsequent measurement of cAMP by radioimmunoassay was performed as previously described (Gardella, T. J., et al., J. Biol. Chem. 271:19888-19893 (1996); Bergwitz, C., et al., Endocrinology 139:723-732 (1998)). Data were analyzed and graphically illustrated using the graph-pad prism software package.

[8] = biological target: T2, human PTH/PTHrP receptor (PTH1R); experiment: radioreceptor competition on HKrk-B7 cells; tracer 125I-rat [Nle8,21,Tyr34]PTH(1-34)amide
Method: as §2

TIP(7-39): truncated TIP39 of Hoare et al., excluded from the claims (DAAFRERARLLAALERRHWLNSYMHKLLVLDAP; Tuberoinfundibular peptide of 39 residues; UniProt P0C171 68-100, looked up, fragment)
inhibition of radioligand binding to the PTH1R (in words) (PTH1R [1]): efficiently inhibited radioligand binding | agonist activity at the PTH1R (in words) (PTH1R [2]): no agonist activity

[Leu^11, D-Trp^12, Trp^23, Tyr^36]PTHrP(7-36)amide (from UniProt P12272 43-72) (peptide)
IC50 of inhibition of agonist-stimulated cAMP accumulation, HKrk-B7 cells [3]: 100 nM

AFRERARLLAALERRHWLNSYMHKLLVLDAP (not fully specified (C-terminus), also called human TIP-(9-39)) [TIP(9-39)]
IC50 of inhibition of agonist-stimulated cAMP accumulation, HKrk-B7 cells (agonists PTH(1-34), PTHrP(1-36) or PTHrP(1-20)/TIP(23-39), 1 nM) [4]: 300 nM | fold higher apparent binding affinity in comparison to the parent peptide TIP(1-39) [5]: ~5.5 fold | fold improvement in apparent binding affinity relative to TIP(1-39) [6]: ≤ 6 fold | IC50 [7]: 44 nM | IC50 [8]: 39 nM
